Holding throughout (format): biochemical
The nature of data set [1]: HTP-analysis of supernatants pretreated with acid (MUGal hydrolysis). Particulars: challenge at pH 4.2; activity of the variant/activity of WT GLA (SEQ ID NO: 5); yeast supernatant. In a few lines: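 Yeast INVSc1 supernatant, GLA variants; acid challenge: McIlvaine pH 3.3-4.3, 37° C., 1-3 h. Assay: MUGal in McIlvaine pH 4.8 plus citrate pH 4.3, 37° C., 30-180 min, Na2CO3 stop, Ex 355/Em 448 nm.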

Data set [2] in a line: HTP-analysis of supernatants pretreated with base (MUGal hydrolysis). The note with it: challenge at pH 7.1; activity of the variant/activity of WT GLA (SEQ ID NO: 5); yeast supernatant. In a few lines:
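Fluorescence of released 4-MU (Ex 355 nm, Em 448 nm) after carbonate quench reports MUGal hydrolysis by GLA variants secreted from INVSc1 yeast. Before the acidic (pH 4.3-4.8) 30-180 min reaction at 37° C, supernatants had been pre-incubated at pH 7.0-9.7 for 1-18 h at 37° C.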

Data set [3] is described as follows: HTP-analysis of yeast culture supernatants, no challenge (MUGal hydrolysis). Particulars: activity of the variant/activity of WT GLA (SEQ ID NO: 5), yeast supernatant. In a few lines:
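GLA variants expressed in yeast INVSc1, secreted into SD-Ura broth over 66-84 h at 30° C; clarified supernatants tested without challenge. Supernatant mixed with McIlvaine buffer pH 4.8 and 2 mM MUGal (citrate/KCl, pH 4.6), 37° C for 30-180 min, carbonate-quenched, fluorescence Ex 355/Em 448 nm.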

B1: 50 (protein)
chain: LDNGLARTPTMGWLHWERFMCNLDCQEEPDSCISEKLFMEMAELMVSEGWKDAGYEYLCIDDCWMAPQRDSEGRLQADPQRFPHGIRQLANYVHSKGLKLGIYADVGNKTCAGFPGSFGYYDIDAQTFADWGVDLLKFDGCYCDSLENLADGYKHMSLALNRTGRSIVYSCEWPLYMWPSQKPNYTEIRQYCNHWRNFADIDDSWKSIKSILDWTSFNQERIVDVAGPGGWNDPDMLVIGNFGLSWNQQVTQMALWAIMAAPLFMSNDLRHISPQAKALLQDKDVIAINQDPLGKQGYQLRQGDNFEVWERPLSGLAWAVAMINRQEIGGPRSYTIAVASLGKGVACNPACFITQLLPVKRKLGFYEWTSRLRSHINPTGTVLLQLENTMQMSKDLLL
modifications: Synthetic Polypeptide sequence of Variant No. 50 of mature Human GLA
For the molecule B1, the “Relative Activity of GLA Variants After Challenge at pH 4.2” value (“Relative Activity … at pH 4.2” for short) in data set [1] was “++ (++ = >1.5 to 2.5 relative activity over WT GLA (SEQ ID NO: 5))”. The “Relative Activity of GLA Variants After Challenge at pH 7.1” value (shortened to “Relative Activity … at pH 7.1”) in data set [2] is given as “++ (++ = >1.5 to 2.5 relative activity over WT GLA (SEQ ID NO: 5))”. The “Relative Activity of GLA Variants After No Challenge (NC)” value in data set [3] is “++ (++ = >1.5 to 2.5 relative activity over WT GLA (SEQ ID NO: 5))”.

B2: 57 (protein)
chain: LDNGLARTPTMGWLHWERFMCNLDCQEEPDSCISEKLFMEMAELMVSEGWKDAGYEYLCIDDCWMAPQRDSEGRLQADPQRFPHGIRQLANYVHSKGLKLGIYADVGNKTCAGFPGSFGYYDIDAQTFADWGVDLLKFDGCYCDSLENLADGYKHMSLALNRTGRSIVYSCEWPLYMWPFQKPNYTEIRQYCNHWRNFADIDDSWKSIKSILDWTSFNQERIVDVAGPGGWNDPDMLVIGNFGLSWNQQVTQMALWAIMAAPLFMSNDLRHISPQAKALLQDKDVIAINQDPLGKQGYQLRQGDNFEVWERPLSGLAWAVAMINRQEIGGPRSYTIAVASLGKGVACNPACFITQLLPVKRKLGKYEWTSRLRSHINPTGTVLLQLENTMQMSKDLLL
modifications: Synthetic Polypeptide sequence of Variant No. 57 of mature Human GLA
As for B2, the “Relative Activity … at pH 4.2” value in data set [1] is given as “++ (++ = >1.5 to 2.5 relative activity over WT GLA (SEQ ID NO: 5))”. The “Relative Activity … at pH 7.1” value in data set [2] is “++ (++ = >1.5 to 2.5 relative activity over WT GLA (SEQ ID NO: 5))”. In addition, in data set [3], the “Relative Activity of GLA Variants After No Challenge (NC)” value is “++ (++ = >1.5 to 2.5 relative activity over WT GLA (SEQ ID NO: 5))”.

B3: 55 (protein)
chain: LDNGLARTPTMGWLHWERFMCNLDCQEEPDSCISEKLFMEMAELMVSEGWKDAGYEYLCIDDCWMAPQRDSEGRLQADPQRFPHGIRQLANYVHSKGLKLGIYADVGNKTCAGFPGSFGYYDIDAQTFADWGVDLLKFDGCYCDSLENLADGYKHMSLALNRTGRSIVYSCEWPLYMWPFQKPNYTEIRQYCNHWRNFADIDDSWKSIKSILDWTSFNQERIVDVAGPGGWNDPDMLVIGNFGLSWNQQVTQMALWAIMAAPLFMSNDLRHISPQAKALLQDKDVIAINQDPLGKQGYQLRQGDNFEVWERPLSGLAWAVAMINRQEIGGPRSYTIAVASLGKGVACNPACVITQLLPVKRKLGIYEWTSRLRSHINPTGTVLLQLENTMQMSKDLLL
modifications: Synthetic Polypeptide sequence of Variant No. 55 of mature Human GLA
In the case of B3, in data set [1], the “Relative Activity … at pH 4.2” value is “+++ (+++ = >2.5 relative activity over WT GLA (SEQ ID NO: 5))”. The “Relative Activity … at pH 7.1” value in data set [2] is on record as “++ (++ = >1.5 to 2.5 relative activity over WT GLA (SEQ ID NO: 5))”. Also, in data set [3], the “Relative Activity of GLA Variants After No Challenge (NC)” value is “++ (++ = >1.5 to 2.5 relative activity over WT GLA (SEQ ID NO: 5))”.

B4: 56 (protein)
chain: LDNGLARTPTMGWLHWERFMCNLDCQEEPDSCISEKLFMEMAELMVSEGWKDAGYEYLCIDDCWMAPQRDSEGRLQADPQRFPHGIRQLANYVHSKGLKLGIYADVGNKTCAGFPGSFGYYDIDAQTFADWGVDLLKFDGCYCDSLENLADGYKHMSLALNRTGRSIVYSCEWPLYMWPFQKPNYTEIRQYCNHWRNFADIDDSWKSIKSILDWTSFNQERIVDVAGPGGWNDPDMLVIGNFGLSWNQQVTQMALWAIMAAPLFMSNDLRHISPQAKALLQDKDVIAINQDPLGKQGYQLRQGDNFEVWERPLSGLAWAVAMINRQEIGGPRSYTIAVASLGKGVACNPACFITQLLPVKRKLGIYEWTSRLRSHINPTGTVLLQLENTMQMSKDLLL
modifications: Synthetic Polypeptide sequence of Variant No. 56 of mature Human GLA
For B4, the “Relative Activity … at pH 4.2” value in data set [1] is “++ (++ = >1.5 to 2.5 relative activity over WT GLA (SEQ ID NO: 5))”. Also, the “Relative Activity … at pH 7.1” value in data set [2] is on record as “++ (++ = >1.5 to 2.5 relative activity over WT GLA (SEQ ID NO: 5))”. In addition, in data set [3], the “Relative Activity of GLA Variants After No Challenge (NC)” value was “++ (++ = >1.5 to 2.5 relative activity over WT GLA (SEQ ID NO: 5))”.

B5: 51 (protein)
chain: LDNGLARTPTMGWLHWERFMCNLDCQEEPDSCISEKLFMEMAELMVSEGWKDAGYEYLCIDDCWMAPQRDSEGRLQADPQRFPHGIRQLANYVHSKGLKLGIYADVGNKTCAGFPGSFGYYDIDAQTFADWGVDLLKFDGCYCDSLENLADGYKHMSLALNRTGRSIVYSCEWPLYMWPFQKPNYTEIRQYCNHWRNSADIDDSWKSIKSILDWTSFNQERIVDVAGPGGWNDPDMLVIGNFGLSWNQQVTQMALWAIMAAPLFMSNDLRHISPQAKALLQDKDVIAINQDPLGKQGYQLRQGDNFEVWERPLSGLAWAVAMINRQEIGGPRSYTIAVASLGKGVACNPACFITQLLPVKRKLGFYEWTSRLRSHINPTGTVLLQLENTMQMSKDLLL
modifications: Synthetic Polypeptide sequence of Variant No. 51 of mature Human GLA
B5: the “Relative Activity … at pH 4.2” value in data set [1] was “++ (++ = >1.5 to 2.5 relative activity over WT GLA (SEQ ID NO: 5))”. Also, in data set [2], the “Relative Activity … at pH 7.1” value is “+ (+ = 0.5 to 1.5 relative activity over WT GLA (SEQ ID NO: 5))”. In addition, the “Relative Activity of GLA Variants After No Challenge (NC)” value in data set [3] is reported as “++ (++ = >1.5 to 2.5 relative activity over WT GLA (SEQ ID NO: 5))”.

B6: 53 (protein)
chain: LDNGLARTPTMGWLHWERFMCNLDCQEEPDSCISEKLFMEMAELMVSEGWKDAGYEYLCIDDCWMAPQRDSEGRLQADPQRFPHGIRQLANYVHSKGLKLGIYADVGNKTCAGFPGSFGYYDIDAQTFADWGVDLLKFDGCYCDSLENLADGYKHMSLALNRTGRSIVYSCEWPLYMWPFQKPNYTEIRQYCNHWRNFADIDDSWKSIKSILDWTSRNQERIVDVAGPGGWNDPDMLVIGNFGLSWNQQVTQMALWAIMAAPLFMSNDLRHISPQAKALLQDKDVIAINQDPLGKQGYQLRQGDNFEVWERPLSGLAWAVAMINRQEIGGPRSYTIAVASLGKGVACNPACFITQLLPVKRKLGFYEWTSRLRSHINPTGTVLLQLENTMQMSKDLLL
modifications: Synthetic Polypeptide sequence of Variant No. 53 of mature Human GLA
B6: the “Relative Activity … at pH 4.2” value in data set [1] is “++ (++ = >1.5 to 2.5 relative activity over WT GLA (SEQ ID NO: 5))”. In data set [2], the “Relative Activity … at pH 7.1” value is on record as “++ (++ = >1.5 to 2.5 relative activity over WT GLA (SEQ ID NO: 5))”. Moreover, the “Relative Activity of GLA Variants After No Challenge (NC)” value in data set [3] is given as “+ (+ = 0.5 to 1.5 relative activity over WT GLA (SEQ ID NO: 5))”.

B7: 54 (protein)
chain: LDNGLARTPTMGWLHWERFMCNLDCQEEPDSCISEKLFMEMAELMVSEGWKDAGYEYLCIDDCWMAPQRDSEGRLQADPQRFPHGIRQLANYVHSKGLKLGIYADVGNKTCAGFPGSFGYYDIDAQTFADWGVDLLKFDGCYCDSLENLADGYKHMSLALNRTGRSIVYSCEWPLYMWPFQKPNYTEIRQYCNHWRNFADIDDSWKSIKSILDWTSFNQERIVDVAGPGGWNDPDMLVIGNFGLSWNQQVTQMALWAIMAAPLFMSNDLRHISPQAKALLQDKDVIAINQDPLGKQGYQLRQGDNFEVWERPLSGLAWAVAMINRQEIGGPRSYTIAVASLGKGVACNPACIITQLLPVKRKLGFYEWTSRLRSHINPTGTVLLQLENTMQMSKDLLL
modifications: Synthetic Polypeptide sequence of Variant No. 54 of mature Human GLA
As to B7, the “Relative Activity … at pH 4.2” value in data set [1] is reported as “+ (+ = 0.5 to 1.5 relative activity over WT GLA (SEQ ID NO: 5))”. Besides, in data set [2], the “Relative Activity … at pH 7.1” value was “+ (+ = 0.5 to 1.5 relative activity over WT GLA (SEQ ID NO: 5))”. In addition, the “Relative Activity of GLA Variants After No Challenge (NC)” value in data set [3] was “+ (+ = 0.5 to 1.5 relative activity over WT GLA (SEQ ID NO: 5))”.

B8: 52 (protein)
chain: LDNGLARTPTMGWLHWERFMCNLDCQEEPDSCISEKLFMEMAELMVSEGWKDAGYEYLCIDDCWMAPQRDSEGRLQADPQRFPHGIRQLANYVHSKGLKLGIYADVGNKTCAGFPGSFGYYDIDAQTFADWGVDLLKFDGCYCDSLENLADGYKHMSLALNRTGRSIVYSCEWPLYMWPFQKPNYTEIRQYCNHWRNFADIDDSWKSIKSILDWTSDNQERIVDVAGPGGWNDPDMLVIGNFGLSWNQQVTQMALWAIMAAPLFMSNDLRHISPQAKALLQDKDVIAINQDPLGKQGYQLRQGDNFEVWERPLSGLAWAVAMINRQEIGGPRSYTIAVASLGKGVACNPACFITQLLPVKRKLGFYEWTSRLRSHINPTGTVLLQLENTMQMSKDLLL
modifications: Synthetic Polypeptide sequence of Variant No. 52 of mature Human GLA
Regarding B8, the “Relative Activity … at pH 4.2” value in data set [1] is recorded as “+ (+ = 0.5 to 1.5 relative activity over WT GLA (SEQ ID NO: 5))”. In addition, the “Relative Activity … at pH 7.1” value in data set [2] is “++ (++ = >1.5 to 2.5 relative activity over WT GLA (SEQ ID NO: 5))”. Also, the “Relative Activity of GLA Variants After No Challenge (NC)” value in data set [3] is listed as “++ (++ = >1.5 to 2.5 relative activity over WT GLA (SEQ ID NO: 5))”.

Values taken from US11278600B2, “Human alpha-galactosidase variants” (Codexis, Inc., priority 2014, dated 2022).
